Here are results for two substances from article PMC10164562.

One may read the stoichiometry N as the number of molecules, sites or subunits per partner or assembly.

For assay [1], the target named is BrxL(E280Q) (Acinetobacter sp. 394). Description: cryo-EM structure; BrxL(E280Q), high molecular weight SEC fractions with co-purified host DNA, no added ATP; C1 refinement.
For assay [2], the target named is wild-type BrxL (Acinetobacter sp. 394). As to the kind of experiment: cryo-EM structure; wild-type BrxL, high molecular weight SEC fractions, ~0.8 mg/ml, no added ATP, no bound DNA; C7 symmetry.

BrxL(E280Q) (natural protein): the stoichiometry N in assay [1] was determined as 12.
Regarding wild-type BrxL (natural protein), in assay [2], the stoichiometry N was found to be 14.
